Experimental data taken from patent publication US20120244208A1, “COSMETIC SKIN CARE METHODS AND COMPOSITIONS” (priority 2009, published 2012).

Assays:
[1] = tested on: Normal human dermal fibroblasts (NHDFs) seeded on collagen type 1 gels; experiment: Fibroblast-seeded collagen gel contraction; assay type: cell-based; conditions: monitored for a further 3 days
[2] = tested on: Normal human dermal fibroblasts (NHDFs) seeded on collagen type 1 gels; experiment: Fibroblast-seeded collagen gel contraction; assay type: cell-based; conditions: 0.1 mg/ml lactoferrin, 0.1 mg/ml ICI 118 551, 1.0 mg/ml Isoproterenol, 3.5×10^4 cells per well
Procedure: Normal human dermal fibroblasts (NHDFs) were obtained by tissue donation following circumcision following patient informed consent. The tissue was rinsed in Phosphate Buffered Saline (PBS) and Pen/Strep and Amphotericin B (Pen/strep) at 10 ug/ml. The tissue was then minced to 1 mm2 sections and suspended in Trypsin-EDTA 1:250 at room temperature (RT) for 1 hr. The tissue was then washed twice by centrifugation at 2500 g for 3min in serum supplemented DMEM/F12. A single cell suspension was created using mechanical disaggregation. The cells were counted using a haemocytometer and cultured at 1×10^6 cells per T75 tissue culture flask in DMEM/F12 containing 10% Fetal Bovine Serum (FBS) and 10 ug/ml Pen/strep. Incubators were kept at 37° C. and 5% CO2. Medium was changed every 3-4 days and cells were used from the 4th passage in vitro.
Collagen gels were formed. A solution of collagen, consisting of 2 mg/ml type 1 bovine collagen from bovine Achilles tendon in 0.5M acetic acid, was made. This made up 80% of the gel. Another 10% was made up of 10×PBS and the remaining volume was made up of FBS. The pH of the entire solution was adjusted to 7.4 using NaOH. 400 μl of the solution was placed into each well of a 24 well plate. The gels were set at 37° C. for 1 hr. After ensuring that the gels were set properly, they were detached from the sides of the wells and exposed to 1 ml fully supplemented DMEM/F12 overnight to acclimatize. The complete gels were seeded with 3.5×10^4 cells per well and the test compounds were added at this point. The test compound were added as follows: 0.1 mg/ml lactoferrin, 0.1 mg/ml ICI 118 551, 1.0 mg/ml Isoproterenol. A cell only and no cell control were also incuded.
Photographs were taken from the same distance at 0, 3, 6, 12 and 24 hrs of exposure using a Canon Powershot A640 10MP camera. The photos were transferred to CorelDRAW X3 and the inside diameter of the well as well as the outer edge of the gel were measured using the circle tool. […] These two diameters were then converted to a percentage of the well diameter by the formula geloutside/wellinside×100=gelrelative. This value was then worked out the same way for each gel at every time period. The time period Ohrs taken to be 100% of gel size and each time period after that was compared to it as a relative percentage. The standard deviation was calculated based on the original relative percentage to the well.

B1: Lactoferrin (protein, UniProt P02788 20-710, looked up)
Lactotransferrin: GRRRSVQWCAVSQPEATKCFQWQRNMRKVRGPPVSCIKRDSPIQCIQAIAENRADAVTLDGGFIYEAGLAPYKLRPVAAEVYGTERQPRTHYYAVAVVKKGGSFQLNELQGLKSCHTGLRRTAGWNVPIGTLRPFLNWTGPPEPIEAAVARFFSASCVPGADKGQFPNLCRLCAGTGENKCAFSSQEPYFSYSGAFKCLRDGAGDVAFIRESTVFEDLSDEAERDEYELLCPDNTRKPVDKFKDCHLARVPSHAVVARSVNGKEDAIWNLLRQAQEKFGKDKSPKFQLFGSPSGQKDLLFKDSAIGFSRVPPRIDSGLYLGSGYFTAIQNLRKSEEEVAARRARVVWCAVGEQELRKCNQWSGLSEGSVTCSSASTTEDCIALVLKGEADAMSLDGGYVYTAGKCGLVPVLAENYKSQQSSDPDPNCVDRPVEGYLAVAVVRRSDTSLTWNSVKGKKSCHTAVDRTAGWNIPMGLLFNQTGSCKFDEYFSQSCAPGSDPRSNLCALCIGDEQGENKCVPNSNERYYGYTGAFRCLAENAGDVAFVKDVTVLQNTDGNNNEAWAKDLKLADFALLCLDGKRKPVTEARSCHLAMAPNHAVVSRMDKVERLKQVLLHQQAKFGRNGSDCPDKFCLFQSETKNLLFNDNTECLARLHGKTTYEKYLGPQYVAGITNLKKCSTSPLLEACEFLRK
notes: transferrin; known collagen contractor
return of gels to original dimensions [1]: did not return to their original dimensions
% of original size (mean) ([2]; 0 hrs (taken to be 100% of gel size)): 100%
% of original size (mean) ([2]; 3 hrs): 92.62%
% of original size (mean) ([2]; 6 hrs): 64.48%
% of original size (mean) ([2]; 12 hrs): 54.71%
% of original size (mean) ([2]; 24 hrs): 49.73%
